Experimental data: patent publication US20180291362A1 (SEOUL NATIONAL UNIVERSITY R AND DB FOUNDATION, published 2018)

Molecular target: the molecule itself
Experiment: non-reducing vs reducing SDS PAGE, subunit self-association (disulfide cross-link)
Description: In order to observe the disulfide bonding of lysine decarboxylase mutant strain, the protein sizes when reducing power was applied and not applied to wild type lysine decarboxylase LdcI (SEQ ID NO: 15) and the mutant strain wherein phenylalanine at position 14 is substituted with cysteine, and lysine at position 44 is substituted with cysteine (F14C/K44C, SEQ ID NO: 6) were measured with SDS PAGE. Such a measurement can confirm whether a shared bond is formed between sulfur elements in a form —S—S— wherein two SH groups added to the mutant strain are producing in oxidation. In a reducing SDS PAGE, reducing power is applied to both of the wild type and the mutant strain to break all disulfides where bonding is possible, and then the sizes are observed, and in non-reducing SDS PAGE, it was observed whether disulfide bond is formed.

B1: lysine decarboxylase LdcI mutant strain wherein phenylalanine at position 14 is substituted with cysteine, and lysine at position 44 is substituted with … (enzyme)
chain: MNVIAILNHMGVYCKEEPIRELHRALERLNFQIVYPNDRDDLLCLIENNARLCGVIFDWDKYNLELCEEISKMNENLPLYAFANTYSTLDVSLNDLRLQISFFEYALGAAEDIANKIKQTTDEYINTILPPLTKALFKYVREGKYTFCTPGHMGGTAFQKSPVGSLFYDFFGPNTMKSDISISVSELGSLLDHSGPHKEAEQYIARVFNADRSYMVTNGTSTANKIVGMYSAPAGSTILIDRNCHKSLTHLMMMSDVTPIYFRPTRNAYGILGGIPQSEFQHATIAKRVKETPNATWPVHAVITNSTYDGLLYNTDFIKKTLDVKSIHFDSAWVPYTNFSPIYEGKCGMSGGRVEGKVIYETQSTHKLLAAFSQASMIHVKGDVNEETFNEAYMMHTTTSPHYGIVASTETAAAMMKGNAGKRLINGSIERAIKFRKEIKRLRTESDGWFFDVWQPDHIDTTECWPLRSDSTWHGFKNIDNEHMYLDPIKVTLLTPGMEKDGTMSDFGIPASIVAKYLDEHGIVVEKTGPYNLLFLFSIGIDKTKALSLLRALTDFKRAFDLNLRVKNMLPSLYREDPEFYENMRIQELAQNIHKLIVHHNLPDLMYRAFEVLPTMVMTPYAAFQKELHGMTEEVYLDEMVGRINANMILPYPPGVPLVMPGEMITEESRPVLEFLQMLCEIGAHYPGFETDIHGAYRQADGRYTVKVLKEESKK
modifications: disulfide bond between the introduced cysteines (positions 14 and 44) of neighbouring subunits
notes: Purified enzyme; also called F14C/K44C; F14C/K44C mutant strain
  binding result: binds
